No end group written: not given here.
Legend:
[1] = tested on: Rin-m cells; experiment: Confocal microscopy of cells incubated with labelled oligomers; assay type: cell-based; settings: 5 μM
Description: Rin-m cells were cultured on glass cover slips located in 24-well micro plates, then incubated for different periods with hIAPP-Hiytelfluor 488 (Anaspec, USA) oligomers (5 μM) at 37° C., as described in the cell cytotoxicity experiments section. After incubation cells were washed with PBS buffer and fixed with 4% paraformaldehyde in PBS for 5 minutes and washed with PBS buffer. Cells were treated with 1% Triton x-100 in PBS and stained with 50 μg/ml Phalloidin Tetramethyl-rhodamine B isothiocyanate (Sigma-Aldrich) in PBS 40 minutes in room temperature, followed by extensive wash with PBS buffer. The cells were imaged using LSM 510 confocal laser scanning microscope (Carl Zeiss Jena, Germany).

[2] = tested on: Rin-m cells; experiment: MTT reduction assay; assay type: cell-based
Description: Rin-m cells (2×10^5 cells/ml) were cultured in 96-well micro plates (100 μl/well) and incubated overnight at 37° C. Human oligomers and rat IAPP was added to each well at various concentrations. Each measurement was repeated four times. Following incubation for 6 hours at 37° C., cell viability was evaluated using 3-(4,5-dimethylthiazolyl-2)-2,5-diphenyltetrazolium bromide (MTT) assay. Briefly, 20 μL of 5 mg/ml MTT dissolved in PBS was added to each well. After 4 hours incubation at 37° C., 100 μl of extraction buffer [20% SDS dissolved in a solution of 50% dimethylformamide and 50% DDW (pH 4.7)] was added to each well, and the plates were incubated again overnight at 37° C. Finally, color intensity was measured using an ELISA plate reader at 570 nm.

[3] = Oligomer stability assay (PAGE under non reducing conditions); assay type: physicochemical; settings: dialyzed against PBS buffer, incubated at 37° C.
Description: FIGS. 1A-E are graphs and photographs illustrating characterization of human IAPP oligomers. (FIG. 1A) PAGE analysis under non-reducing conditions of human IAPP oligomers and a negative control of non amyloidogenic rat IAPP (I-monomer, II-dimer and III-trimer). (FIG. 1B) Oligomer stability assay, hIAPP oligomers were dialyzed against PBS buffer and incubated at 37° C. Oligomer association/disassociation was monitored by PAGE analysis under non reducing conditions. (FIG. 1C) Size exclusion chromatography (Superdex 75 10/300, PBS buffer pH 7.4) of hIAPP oligomers; I-monomer, […], III-trimer and IV-90 kDa oligomer. (FIG. 1D) Transmittance electron microscopy (TEM) and atomic force microscopy (AFM) images of the ˜90 kDa oligomers, TEM scale bar 100 nm, AFM scale bar 600 nm. (FIG. 1E) CD spectroscopy of hIAPP and rIAPP, protein concentration of 5 μM. Each spectrum represents the average of three measurements.
IAPP synthetic peptide (Human; H-7905, Bachem, Bubendorf, Switzerland. Rat; 74-5-10A, American peptide, California, U.S.A) was suspended in 100% 1,1,1,3,3,3 hexafluoro-2-propanol (HFIP) at 1 mg/ml and incubated for complete solubilization under shaking (100 rpm) at 37° C. for 2 hours. […] IAPP self-assembly products were analyzed by 15% Tris-tricine PAGE and stained with Imperial protein stain. […]

[4] = tested on: Rin-m cells; experiment: Flow cytometry cell sorting (FACS) assay, Annexin V-FITC apoptosis detection; assay type: cell-based; settings: 0.5 μM, 1 μM and 5 μM
Description: Rin-m cells (5×10^5 cells/ml) were cultured for 4 hours at 37° C. incubated with human IAPP oligomers (final concentration of 0.5 μM, 1 μM and 5 μM). Samples were washed with PBS buffer and resuspended with 500 μl binding buffer. 5 μl of Annexin V-FITC and 10 μl of propidium iodide (Annexin V-FITC apoptosis detection kit; MBL) was added to the samples. After 10 minutes of incubation in the dark at RT, samples were analyzed using the FACS Sort (Beckton Dickinson) and results analyzed using the CellQuest program (Beckton Dickinson). Each measurement was repeated three times. FL1-H represents the fluorescence of V-FITC and FL2-H represents the fluorescence of […].

[5] = pancreatic RIN-m cells, 100 nM-10 μM, 6 hours

## hIAPP-Hiytelfluor 488 oligomers: oligomers of fluorescently labelled hIAPP-Hiytelfluor 488 (Anaspec) (KCNTATCATQRLANFLVHSSNNFGAILSSTNVGSNTY; not fully specified (C-terminus, bridges); cysteine pairing not given here; also: HiLyte Fluor 488 label, position not given here, oligomers; UniProt P10997 34-70, looked up)
[1]; after eight hours
  cell morphology (confocal): Dramatic cell morphology changes
[1]; after four hours, insertion of oligomers to the cytoplasm
  cell numbers (confocal): massive decline in cell numbers
[1]; after one hour
  interaction of oligomers with cells (confocal): intensive localization of the oligomers to the cell membrane

## rIAPP: non amyloidogenic rat IAPP synthetic peptide, negative control, treated in the same manner [reference compound]
[2]; [5]
  cell viability (MTT reduction): showed no such effect

B1: hIAPP oligomers: isolated stable oligomers (dimers, trimers, ~90 kDa) of synthetic human islet amyloid polypeptide prepared with HFIP, NaOH and SDS (peptide)
peptide: MGILKLQVFLIVLSVALNHLKATPIESHQVEKRKCNTATCATQRLANFLVHSSNNFGAILSSTNVGSNTYGKRNAVEVLKREPLNYLPL
[2]; [5]
  cell viability (MTT reduction): dose dependent decrease in cell viability
[2]; pancreatic cells, 5 μM oligomers
  cell viability (MTT reduction): reduced dramatically
[3]
  oligomer stability (no disassembly or further polymerization to fibrils): up to 7 days
[3]; listed as oligomeric structures
  oligomer stability (no disassembly or further polymerization to fibrils): stable for up to seven days
[4]
  correlation of oligomer concentration with percentage of apoptotic cells: clear and strong correlation
[4]; 4 hours
  cell state (apoptosis) by FACS: mostly in the early and late apoptotic phase

Reference: patent US9624285B2, “Methods of treating diabetes and compositions capable of same” (Ramot a Tel-Aviv University Ltd., priority 2010, dated 2017)
